Data published in article doi:10.1101/2025.07.31.667872 (bioRxiv, 2025).

Assays:
Settings in all cases: both partners purified
[1] = target: T1, RPN13 Pru (1–150), reduced (UniProt Q16186 1-150); assay: ITC; RPN2 (940–953) in the syringe (156 μM), RPN13 Pru in the cell (15.6 μM); 25 °C, reducing buffer: 20 mM sodium phosphate, 50 mM NaCl, 10 mM βME, pH 6.0; one-site fit
T1 construct: Kept in reducing ITC buffer (10 mM βME); also called redu RPN13^Pru; RPN13 (1–150); source: E. coli BL21(DE3) pLysS, purified (Talon resin, PreScission elution, Superdex 75); not shown: His6, N-terminal, cleaved
T1 sequence (Q16186 1-150): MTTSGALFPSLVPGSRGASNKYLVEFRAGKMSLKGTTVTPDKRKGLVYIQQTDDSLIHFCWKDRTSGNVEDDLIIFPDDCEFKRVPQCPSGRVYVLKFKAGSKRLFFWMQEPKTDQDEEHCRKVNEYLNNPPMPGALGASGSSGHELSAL

[2] = target: T2, oxi-RPN13^Pru following incubation with 3-fold molar excess TXNL1^Trx (UniProt Q16186 1-150, oxidized with 0.05 % H2O2, then treated with TXNL1 Trx); assay: ITC; RPN2 (940–953) in the syringe (205.7 or 160 μM), RPN13 Pru in the cell (20.57 or 16 μM); 25 °C, non-reducing buffer: 20 mM sodium phosphate, 50 mM NaCl, pH 6.0; one-site fit
T2 construct: RPN13 Pru domain, residues 1-150; source: E. coli BL21(DE3) pLysS, purified; not shown: His6, N-terminal, cleaved
T2 sequence (Q16186 1-150): as above

[3] = target: T3, RPN13 Pru (1–150), oxidized (UniProt Q16186 1-150, oxidized with 0.05 % H2O2; the oxidized residues are not given); assay: as above
T3 construct: RPN13 Pru domain, residues 1-150; also called oxi-RPN13^Pru; not shown: His6, N-terminal, cleaved
T3 sequence (Q16186 1-150): as above

B1: RPN2 peptide (940–953) (peptide, UniProt Q99460 940-953, looked up)
chain: QEPEPPEPFEYIDD
notes: The construct has a PreScission site after GST, but the methods tell only of elution as the GST fusion; ITC and NMR speak of the RPN2 peptide; also called RPN2 (940–953); RPN2^940–953
- Kd [1]: 0.0124 ± 0.00529 µM
- Kd [2]: 0.0189 ± 0.0057 µM
- Kd [3]: 0.04 ± 0.0153 µM
